# Source: US20180142018A1 (NOVIMMUNE, published 2018)
# Substitutions are numbered along the chain they refer to.
# T1: human CD19 (human, UniProt P15391 20-556)
# T1 construct: whole, on cells; also called huCD19
# T1 sequence (looked up): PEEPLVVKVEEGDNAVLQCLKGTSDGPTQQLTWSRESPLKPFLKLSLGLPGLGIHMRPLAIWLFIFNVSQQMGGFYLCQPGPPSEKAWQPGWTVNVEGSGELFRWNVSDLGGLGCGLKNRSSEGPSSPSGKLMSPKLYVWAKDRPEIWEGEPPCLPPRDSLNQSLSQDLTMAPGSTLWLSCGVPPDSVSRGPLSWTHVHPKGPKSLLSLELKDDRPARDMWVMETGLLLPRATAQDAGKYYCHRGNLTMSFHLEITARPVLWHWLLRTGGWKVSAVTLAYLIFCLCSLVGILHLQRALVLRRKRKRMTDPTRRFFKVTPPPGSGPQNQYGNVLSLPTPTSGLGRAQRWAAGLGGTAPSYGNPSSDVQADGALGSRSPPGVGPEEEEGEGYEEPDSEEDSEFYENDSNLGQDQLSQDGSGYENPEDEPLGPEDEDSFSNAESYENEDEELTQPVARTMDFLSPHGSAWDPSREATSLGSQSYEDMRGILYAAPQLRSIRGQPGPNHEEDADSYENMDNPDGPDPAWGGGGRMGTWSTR
# T2: cynomolgus CD19 (cynomolgus monkey, UniProt A0A2K5W8L9 20-557)
# T2 construct: whole, on cells; also called cynoCD19; cynomolgus monkey CD19
# T2 sequence: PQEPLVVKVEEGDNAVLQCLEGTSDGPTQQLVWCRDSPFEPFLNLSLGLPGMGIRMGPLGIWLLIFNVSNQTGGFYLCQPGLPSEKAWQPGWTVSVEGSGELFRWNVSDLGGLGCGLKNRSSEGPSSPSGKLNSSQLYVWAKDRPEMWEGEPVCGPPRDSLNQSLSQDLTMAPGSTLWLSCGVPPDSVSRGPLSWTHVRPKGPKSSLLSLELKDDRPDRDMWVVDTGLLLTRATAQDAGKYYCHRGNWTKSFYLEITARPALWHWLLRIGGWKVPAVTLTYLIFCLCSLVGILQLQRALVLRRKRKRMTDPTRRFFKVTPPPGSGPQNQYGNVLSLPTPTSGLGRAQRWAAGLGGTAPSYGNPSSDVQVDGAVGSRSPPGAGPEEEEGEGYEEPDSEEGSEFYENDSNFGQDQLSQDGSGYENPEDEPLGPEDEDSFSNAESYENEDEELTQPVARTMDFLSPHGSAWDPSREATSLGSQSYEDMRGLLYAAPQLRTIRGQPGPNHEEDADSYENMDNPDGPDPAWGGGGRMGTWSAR
# B1: F6 antibody (antibody, human IgG1, V domains shown)
# VH: EVQLVQSGAEVKKPGESLKISCKGSGYSFTSYWIGWVRQMPGKGLEWMGIIYPGDSDTRYSPSFQGQVTISADKSISTAYLQWSSLKASDTAMYYCARVWYYDFWSGADAFDIWGQGTLVTVSS
# VL: EIVMTQSPATLSVSPGERATLSCRASQSVSSNLAWYQQKPGQAPRLLIYGASTRATGIPARFSGSGSGTEFTLTISSLQSEDFAVYYCQQGSLEAPQTFGQGTKVEIK
# notes: also called human IgG1 F6 anti-CD19 antibody
# B2: 7F11 antibody (antibody, human IgG1, V domains shown)
# VH: EVQLVQSGAEVKKPGESLKISCKGSGYSFTSYWIGWVRQMPGKGLEWMGIIYPGDSDTRYSPSFQGQVTISADKSISTAYLQWSSLKASDTAMYYCARGVSGIYNLHGFDIWGQGTLVTVSS
# VL: DIQMTQSPSSLSASVGDRVTITCRASQSISSYLNWYQQKPGKAPKLLIYAASSLQSGVPSRFSGSGSGTDFTLTISSLQPEDFATYYCQQGMWDNPFTFGQGTKVEIK
# notes: also called human IgG1 7F11 anti-CD19 antibody
# B3: 9G8 antibody (antibody, human IgG1, V domains shown)
# VH: B2 VH
# VL: B2 VL with M92R, W93F, D94G, N95S
# notes: also called human IgG1 9G8 anti-CD19 antibody
# B4: 7F1 antibody (antibody, human IgG1, V domains shown)
# VH: EVQLVQSGAEVKKPGESLKISCKGSGYSFTSYWIGWVRQMPGKGLEWMGIIYPGDSDTRYSPSFQGQVTISADKSISTAYLQWSSLKASDTAMYYCARGDYWTGFAYWGQGTLVTVSS
# VL: QSVLTQPPSVSAAPGQKVTISCSGSSSNIGNNYVSWYQQLPGTAPKLLIYDNNKRPSGIPDRFSGSKSGTSATLGITGLQTGDEADYYCGTWDLGWNSVFGGGTKLTVL
# notes: also called human IgG1 7F1 anti-CD19 antibody
# B5: 10D8 antibody (antibody, human IgG1, V domains shown)
# VH: QVQLVQSGAEVKKPGSSVKVSCKASGGTFSSYAISWVRQAPGQGLEWMGGIIPIFGTANYAQKFQGRVTITADESTSTAYMELSSLRSEDTAVYYCARDRGYDYVWGSYRYGAFDIWGQGTLVTVSS
# VL: QSALTQPASVSGSPGQSITISCTGTSSDVGGYNYVSWYQQHPGKAPKLMIYEVSNRPSGVSNRFSGSKSGNTASLTISGLQAEDEADYYCSSYDVWVPHMVFGGGTKLTVL
# notes: also called human IgG1 10D8 anti-CD19 antibody
# B6: 5F5 antibody (antibody, human IgG1, V domains shown)
# VH: B2 VH with V100I
# VL: B2 VL with G91A, M92S, W93L, N95S, F97L
# notes: also called human IgG1 5F5 anti-CD19 antibody
# Target: T1, human CD19
# Test: FACS on human PBMC gated on CD20+ B lymphocytes, 30 and 3 µg/mL
# Method: (§1) The ability of various anti-CD19 antibodies of the disclosure to bind various peripheral blood mononuclear cells (PBMC). Human and cynomolgus PBMC from frozen aliquots in citrate buffer were tested. […] The PBMC were labelled with anti-CD20-PE monoclonal antibody (mAb), anti-CD14-FITC mAb, and anti-CD3-PerCP mAb cross-reactive both to human and cynomolgus species. Cell surface bound hIgG1 were detected with a mouse anti-human IgG Fc-APC mAb. FACS gating was performed with the anti-CD20 mAb for the B lymphocyte population, with the anti-CD3 for the T lymphocyte population and with anti-CD14 for the monocyte population.
row,binding result,Binder
1,binds,B1
2,binds,B2
3,binds,B3
4,binds,B4
5,binds,B5

# Target: T1, human CD19
# Test: FACS on human B lymphocyte cell lines (Raji, Ramos, Nalm6, Su-DHL6, Su-DHL4, Mec2); binding lost on CD19-silenced Raji siRNA
# Method: The ability of various anti-CD19 antibodies of the disclosure to bind various human B lymphocyte cell lines was evaluated. In particular, the human IgG1 5F5, 7F11, 9G8, F6, 7F1, and 10D8 anti-CD19 antibodies were evaluated for their abilities to bind (i) six human B lymphocyte cell lines: Raji, Ramos, Nalm6, Su-DHL6, Su-DHL4, and Mec2, (ii) a CD19 silenced B cell line: Raji siRNA; and a negative cell line (Jurkat). All incubations were prepared in FACS buffer (PBS, BSA 2%) at 4° C. Fc receptors on B cells were blocked with 10% mouse serum. Four doses of hIgG1 were tested: 10, 1, 0.1 and 0.01 μg/mL. Cell surface bound hIgG1 were detected with a mouse anti-human IgG Fc-PE mAb.
row,binding result,Binder
1,binds,B6

# Target: T2, cynomolgus CD19
# Test: FACS on PBMC CD20+ B lymphocytes; human over cynomolgus, told of the group of anti-CD19 antibodies
# Method: as §1
row,fold higher binding on human than on cynomolgus PBMC [fold],Binder
1,≤ 10,B1
2,≤ 10,B2
3,≤ 10,B3
4,≤ 10,B6
